Source: patent US20050261475A1

Biological target: recombinant microtubule-associated protein Tau (Homo sapiens (Human)) (UniProt P10636)

## purified active CDK5/p25 complex (enzyme)
  in vitro phosphorylation, stoichiometry; MALDI-TOF MS of tryptic peptides (phosphates per Tau molecule): 0.5
